{
  "source": "paper PMC7324543",
  "about": "“Rapid and sensitive large-scale screening of low affinity extracellular receptor protein interactions by using reaction induced inhibition of Gaussia luciferase” (Scientific Reports, 2020)",
  "key": {"[1]": {"molecular_target": "Cd200R (Rattus norvegicus) (UniProt Q9ES58)", "settings": "cited from earlier work"}, "[2]": {"molecular_target": "T1, biotinylated rat Cd200R monomeric bait (rat, UniProt Q9ES58 24-239, biotin on a specific lysine of the C-terminal BirA acceptor peptide (enzymatic monobiotinylation))", "T1 chain": "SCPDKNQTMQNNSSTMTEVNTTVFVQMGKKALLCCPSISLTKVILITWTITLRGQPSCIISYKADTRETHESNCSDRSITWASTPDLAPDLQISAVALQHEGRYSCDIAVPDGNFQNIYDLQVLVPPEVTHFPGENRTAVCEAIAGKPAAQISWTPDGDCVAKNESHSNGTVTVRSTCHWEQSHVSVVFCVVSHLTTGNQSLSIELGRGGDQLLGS", "assay": "ELISA; printed as log IC50 = -9.6; direct binding of pentameric prey to immobilised bait"}, "[3]": {"molecular_target": "T2, biotinylated rat Cd200R monomeric bait (rat, UniProt Q9ES58 24-239, biotin on a specific lysine of the C-terminal BirA acceptor peptide (enzymatic monobiotinylation))", "T2 construct": "Cd200R (CD200 receptor 1), rat, ectodomain; Captured on streptavidin-coated plates by its biotin; also called Cd200R bait; source: HEK293E, transient transfection with BirA plasmid, secreted; purified; not shown: rat Cd4 domains 3+4, C-terminal, kept; BirA biotin acceptor peptide, C-terminal, kept", "T2 sequence (looked up)": "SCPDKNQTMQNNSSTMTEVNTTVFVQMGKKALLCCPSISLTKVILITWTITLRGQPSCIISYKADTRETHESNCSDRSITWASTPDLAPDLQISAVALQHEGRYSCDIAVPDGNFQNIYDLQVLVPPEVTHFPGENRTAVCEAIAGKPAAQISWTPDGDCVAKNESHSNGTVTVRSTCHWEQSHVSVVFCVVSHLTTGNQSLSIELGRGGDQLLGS", "assay": "ELISA; AVEXIS: dilution series of pentameric beta-lactamase prey on a fixed quantity of monomeric mono-biotinylated bait on a streptavidin-coated 96-well plate; 1 h at room temperature, washes in PBS / 0.1% Tween-20; nitrocefin, absorbance at 485 nm", "settings": "both partners purified"}, "[4]": {"molecular_target": "T3, biotinylated Cd200R Gaussia luciferase pentamer (bait) (rat, UniProt Q9ES58 24-239, biotin on a specific lysine of the C-terminal BirA acceptor peptide (enzymatic biotinylation))", "T3 construct": "Cd200R (CD200 receptor 1), rat, ectodomain; also called Cd200R Gaussia luciferase-tagged pentamer; source: HEK293E, transient transfection with BirA plasmid, secreted; purified; not shown: rat Cd4 domains 3+4, C-terminal, kept; five concatenated Gaussia luciferase units (AAG54095 residues K18-D185), C-terminal, kept; BirA biotin acceptor peptide, C-terminal, kept", "T3 sequence (looked up)": "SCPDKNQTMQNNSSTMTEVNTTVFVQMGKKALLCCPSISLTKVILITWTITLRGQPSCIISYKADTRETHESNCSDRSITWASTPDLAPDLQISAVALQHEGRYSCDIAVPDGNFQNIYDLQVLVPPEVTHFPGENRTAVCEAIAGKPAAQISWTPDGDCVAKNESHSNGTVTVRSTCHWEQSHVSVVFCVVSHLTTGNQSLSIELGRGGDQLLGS", "assay": "ELISA; AVEXIS: dilution series of biotinylated Gaussia luciferase pentamer immobilised as bait on a streptavidin-coated plate, probed with beta-lactamase-tagged pentameric prey; nitrocefin read-out", "settings": "both partners purified"}, "[5]": {"molecular_target": "T1, biotinylated rat Cd200R monomeric bait", "assay": "ELISA; printed as log IC50 = -9.9; direct binding of pentameric prey to immobilised bait"}, "[6]": {"molecular_target": "T2, biotinylated rat Cd200R monomeric bait", "assay": "ELISA; AVEXIS: dilution series of pentameric nano-luciferase prey on a fixed quantity of monomeric mono-biotinylated bait on a streptavidin-coated 96-well plate; 1 h at room temperature; furimazine, luminescence", "settings": "both partners purified"}, "[7]": {"molecular_target": "T3, biotinylated Cd200R Gaussia luciferase …", "assay": "ELISA; AVEXIS, single construct: dilution series of biotinylated Gaussia luciferase pentamer bait on a streptavidin-coated plate, inactivated with coelenterazine, probed with non-biotinylated Gaussia luciferase pentamer prey; coelenterazine, luminescence", "settings": "both partners purified"}, "[8]": {"molecular_target": "T2, biotinylated rat Cd200R monomeric bait", "assay": "ELISA; AVEXIS: dilution series of pentameric Gaussia luciferase prey on a fixed quantity of monomeric mono-biotinylated bait on a streptavidin-coated 96-well plate; 1 h at room temperature; coelenterazine, luminescence", "settings": "both partners purified"}},
  "data": [
    {"molecule": "Cd200 (from UniProt P04218)", "values": [
      {"measurement": "Kd", "setting": "[1]", "result": 2500, "unit": "nM"}
    ]},
    {"molecule": "rat Cd200 beta-lactamase pentameric prey (domain or fragment, UniProt P04218 31-232, looked up, Cd200 (OX-2 membrane glycoprotein), rat, extracellular region (ectodomain); Original AVEXIS prey format; Pentamer through COMP; also called Cd200 beta-lactamase tagged prey; beta-lactamase-tagged Cd200 pentamer; source: HEK293E, transient transfection, secreted; not shown: rat Cd4 domains 3+4, C-terminal, kept; beta-lactamase (WP_125075679 residues H19-W282), C-terminal, kept) QVEVVTQDERKLLHTTASLRCSLKTTQEPLIVTWQKKKAVGPENMVTYSKAHGVVIQPTYKDRINITELGLLNTSITFWNTTLDDEGCYMCLFNMFGSGKVSGTACLTLYVQPIVHLHYNYFEDHLNITCSATARPAPAISWKGTGSGIENSTESHSHSNGTTSVTSILRVKDPKTQVGKEVICQVLYLGNVIDYKQSLDKG", "values": [
      {"measurement": "IC50", "setting": "[2]", "result": 0.25, "unit": "nM"},
      {"measurement": "binding result", "setting": "[3]", "result": "binds"},
      {"measurement": "binding result", "setting": "[4]", "result": "binds"}
    ]},
    {"molecule": "rat Cd200 nano-luciferase pentameric prey (domain or fragment, UniProt P04218 31-232, looked up, Cd200 (OX-2 membrane glycoprotein), rat, extracellular region (ectodomain); also called NanoLuc prey; Nano luciferase prey; source: HEK293E, transient transfection, secreted; not shown: rat Cd4 domains 3+4, C-terminal, kept; five concatenated nano-luciferase units (AHH41346 residues V2-T171), C-terminal, kept) QVEVVTQDERKLLHTTASLRCSLKTTQEPLIVTWQKKKAVGPENMVTYSKAHGVVIQPTYKDRINITELGLLNTSITFWNTTLDDEGCYMCLFNMFGSGKVSGTACLTLYVQPIVHLHYNYFEDHLNITCSATARPAPAISWKGTGSGIENSTESHSHSNGTTSVTSILRVKDPKTQVGKEVICQVLYLGNVIDYKQSLDKG", "values": [
      {"measurement": "IC50", "setting": "[5]", "result": 0.126, "unit": "nM"},
      {"measurement": "binding result", "setting": "[6]", "result": "binds"}
    ]},
    {"molecule": "rat Cd200 Gaussia luciferase pentameric prey (domain or fragment, UniProt P04218 31-232, looked up, Cd200 (OX-2 membrane glycoprotein), rat, extracellular region (ectodomain); also called Cd200 Gaussia luciferase fusion pentamer; GLuc prey; source: HEK293E, transient transfection, secreted; not shown: rat Cd4 domains 3+4, C-terminal, kept; five concatenated Gaussia luciferase units (AAG54095 residues K18-D185), C-terminal, kept) QVEVVTQDERKLLHTTASLRCSLKTTQEPLIVTWQKKKAVGPENMVTYSKAHGVVIQPTYKDRINITELGLLNTSITFWNTTLDDEGCYMCLFNMFGSGKVSGTACLTLYVQPIVHLHYNYFEDHLNITCSATARPAPAISWKGTGSGIENSTESHSHSNGTTSVTSILRVKDPKTQVGKEVICQVLYLGNVIDYKQSLDKG", "values": [
      {"measurement": "IC50", "setting": "[5]", "result": 0.126, "unit": "nM"},
      {"measurement": "binding result", "setting": "[7]", "result": "binds"},
      {"measurement": "binding result", "setting": "[8]", "result": "binds"}
    ]}
  ]
}
